Laboratory results reported in patent US20050089961A1 (NEUROMED PHARMACEUTICALS, published 2005).

Molecular target: rat α1B+β1b calcium channel (N-type calcium channel) (rat, UniProt Q02294 1-2336; P54283 1-597)
Experiment: cell-based or functional assay

Sequence of rat α1B+β1b calcium channel (N-type calcium channel) (Q02294 whole entry, chain 1 of 2): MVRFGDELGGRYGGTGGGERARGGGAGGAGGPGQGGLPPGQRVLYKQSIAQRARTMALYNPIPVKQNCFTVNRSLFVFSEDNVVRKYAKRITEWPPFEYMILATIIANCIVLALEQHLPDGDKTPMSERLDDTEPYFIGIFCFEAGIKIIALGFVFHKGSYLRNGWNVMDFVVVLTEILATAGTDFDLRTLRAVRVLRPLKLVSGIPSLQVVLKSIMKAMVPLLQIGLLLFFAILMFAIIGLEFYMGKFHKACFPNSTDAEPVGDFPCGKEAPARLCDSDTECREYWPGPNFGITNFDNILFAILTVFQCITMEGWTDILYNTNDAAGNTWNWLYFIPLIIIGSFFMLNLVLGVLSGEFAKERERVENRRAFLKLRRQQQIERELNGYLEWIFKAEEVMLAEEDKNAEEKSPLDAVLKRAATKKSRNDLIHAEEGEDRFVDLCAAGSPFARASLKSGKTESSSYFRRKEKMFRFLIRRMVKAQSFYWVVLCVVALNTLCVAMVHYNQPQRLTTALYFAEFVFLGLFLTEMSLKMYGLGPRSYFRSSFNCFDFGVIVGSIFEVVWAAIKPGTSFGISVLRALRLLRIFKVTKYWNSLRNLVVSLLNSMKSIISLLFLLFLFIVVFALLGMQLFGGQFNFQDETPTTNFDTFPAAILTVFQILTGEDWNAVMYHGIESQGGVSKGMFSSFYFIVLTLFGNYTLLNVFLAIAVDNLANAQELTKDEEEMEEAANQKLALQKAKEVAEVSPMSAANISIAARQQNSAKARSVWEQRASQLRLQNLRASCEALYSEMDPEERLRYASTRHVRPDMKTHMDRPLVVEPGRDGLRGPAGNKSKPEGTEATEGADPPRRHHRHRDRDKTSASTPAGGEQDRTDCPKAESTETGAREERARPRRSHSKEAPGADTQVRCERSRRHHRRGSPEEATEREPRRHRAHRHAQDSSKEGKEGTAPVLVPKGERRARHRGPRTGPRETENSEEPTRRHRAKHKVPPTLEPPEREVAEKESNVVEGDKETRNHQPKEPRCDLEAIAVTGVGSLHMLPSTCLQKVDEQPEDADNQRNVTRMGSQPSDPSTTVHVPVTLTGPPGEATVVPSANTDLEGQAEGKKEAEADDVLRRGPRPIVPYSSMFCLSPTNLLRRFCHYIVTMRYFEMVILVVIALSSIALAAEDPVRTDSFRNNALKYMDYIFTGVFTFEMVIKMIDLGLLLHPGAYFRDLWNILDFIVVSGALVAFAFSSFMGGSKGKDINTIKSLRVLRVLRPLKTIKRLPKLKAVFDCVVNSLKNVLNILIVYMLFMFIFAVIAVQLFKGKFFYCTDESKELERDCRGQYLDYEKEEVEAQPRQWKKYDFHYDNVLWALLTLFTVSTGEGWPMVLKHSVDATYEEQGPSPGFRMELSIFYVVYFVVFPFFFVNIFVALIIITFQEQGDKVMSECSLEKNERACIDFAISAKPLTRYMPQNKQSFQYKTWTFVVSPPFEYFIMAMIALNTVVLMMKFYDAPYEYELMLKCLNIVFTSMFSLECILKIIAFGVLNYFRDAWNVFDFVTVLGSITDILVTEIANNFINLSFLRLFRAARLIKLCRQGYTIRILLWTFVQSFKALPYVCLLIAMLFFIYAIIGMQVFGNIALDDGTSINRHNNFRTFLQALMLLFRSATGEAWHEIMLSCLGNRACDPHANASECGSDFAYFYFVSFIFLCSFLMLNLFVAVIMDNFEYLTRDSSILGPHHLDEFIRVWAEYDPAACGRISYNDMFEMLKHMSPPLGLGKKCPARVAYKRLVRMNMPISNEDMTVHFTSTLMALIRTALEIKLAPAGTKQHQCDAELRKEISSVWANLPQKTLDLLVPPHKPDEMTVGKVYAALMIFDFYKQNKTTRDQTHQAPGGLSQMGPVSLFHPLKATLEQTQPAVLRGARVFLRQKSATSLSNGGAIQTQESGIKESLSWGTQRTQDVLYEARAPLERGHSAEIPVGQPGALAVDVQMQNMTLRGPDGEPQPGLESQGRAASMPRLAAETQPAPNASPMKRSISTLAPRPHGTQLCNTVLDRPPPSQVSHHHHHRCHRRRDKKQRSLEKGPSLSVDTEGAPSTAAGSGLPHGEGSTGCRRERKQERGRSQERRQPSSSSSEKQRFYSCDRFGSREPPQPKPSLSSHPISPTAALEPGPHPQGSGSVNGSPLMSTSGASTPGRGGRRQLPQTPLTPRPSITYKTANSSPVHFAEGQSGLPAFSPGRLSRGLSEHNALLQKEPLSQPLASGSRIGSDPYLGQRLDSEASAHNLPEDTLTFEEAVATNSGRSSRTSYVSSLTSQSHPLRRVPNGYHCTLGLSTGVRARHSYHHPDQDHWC
Sequence of rat α1B+β1b calcium channel (N-type calcium channel) (P54283 whole entry, chain 2 of 2): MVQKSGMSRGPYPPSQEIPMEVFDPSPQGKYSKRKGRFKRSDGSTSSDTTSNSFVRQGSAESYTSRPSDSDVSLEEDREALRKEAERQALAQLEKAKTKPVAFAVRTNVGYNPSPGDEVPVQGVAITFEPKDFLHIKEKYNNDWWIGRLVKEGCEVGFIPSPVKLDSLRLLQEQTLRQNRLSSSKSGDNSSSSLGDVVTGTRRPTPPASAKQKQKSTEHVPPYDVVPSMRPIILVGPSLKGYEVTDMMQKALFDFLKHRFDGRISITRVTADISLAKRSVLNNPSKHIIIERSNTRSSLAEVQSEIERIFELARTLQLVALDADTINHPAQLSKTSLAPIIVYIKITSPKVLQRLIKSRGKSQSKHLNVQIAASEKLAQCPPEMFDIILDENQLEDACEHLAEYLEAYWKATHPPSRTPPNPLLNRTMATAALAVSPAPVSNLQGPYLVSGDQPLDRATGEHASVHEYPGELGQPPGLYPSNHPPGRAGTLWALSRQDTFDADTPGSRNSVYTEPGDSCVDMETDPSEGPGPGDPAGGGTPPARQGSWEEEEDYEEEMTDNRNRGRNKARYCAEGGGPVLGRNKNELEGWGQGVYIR

B1: full-length chicken α2δ-1 calcium channel subunit (other)
chain: HSSEGPFPSPTTIKSWVDKMQEDLITLARTASGVEQLAAIYLKNKDLYTVEANNPRQLVEIAARDIEKLLSNRSKALVRLAKEAEKYQASHQWRDEFGNNDIIYYNAKDDQNDPEKNDTESGSQRIRPVFEEDPVFRRQTSYQHAAVHIPTDIYEGSTIVLNELNWTAALDDVFKRNREEDPTLLWQVFGSATGLARYYPASPWVDNSRTPNKIDLYDVRRRPWYIQGAASPKDMLILVDASGSVSGLTLKLIRTSVIEMLETLSDDDFVNVVSFNNNAQNVSCFNHLVQANVRNKKKLKEAVDKISAKGITDYKKGFSYAFEQLLNHSVSRANCNKIIMLFTDGGEERAQEIFHKYNEDKKVRVFTFSVGQHNYDKGPIQWMACENKGYYYEIPSIGAIRINTQEYLDVLGRPMVLAGEKAKQVQWTNVYLDALELGLVITGTLPVFNLTKEQNGKINQLILGVMGVDVSLEDIKKLTPRFTLCPNGYYFAIDPNGYVLLHPNLQPKNPKSQEPVTLDFLDAELENDIKVEIRKKMIDGESGEKTFETLVKSQDERYIDKGNRTYTWTAVNGTDYSLALVLPSYSFYYIKAKIEEPITQARLEIKKDSETLKIDHFDEAGYTFIAPREYCTDVKKSENNTEFLLNFNEFIDRNTPSSPSCNTDMVIRVLLDAGFTNELAQNYWSKLYLDGVVAQFVVTDGGITRVFPKRAGEDWLENAETYEVSFYKRSLDNDNYIFTAPYYNKSGANSYESGIMVSKAVEITINGKLLKPAVVGIKIDAMKWMENFTTTTIKSLCNSEICGCEKNSMHVDCVILDDGGFLLMSNRDEYTHQIGRFFGEIDPGLMRNLINMSLYAFNKSYDYQSVCDPEEEPKQGAGLRSAYVPTIADILQLGWWASAAAWSILQQLFLSLTFPRFLEAADMEDDDFSTALPKTSCITEQTQYFFENDDKSFIGIVDCINCSRLYHAEKISNTNLVFIISDSQLLCRSCDPKPLMQAEKPDEGPNPCEMVKQPRYRKGPDVCFDEAKQEDSADCGGASGLSPSLWSMVGIQLVLLWLLSGSRHYQL
  current density (Ipeak/cell capacitance), whole-cell patch clamp, fold increase on coexpression: ~10 fold
